Biological target: cdk5_rat Cdk5 (UniProt Q03114)

Substance	effect of a mutation on the interaction
BDNF/NT-3 growth factors receptor (Rattus norvegicus (Rat)), Q63604 S478A	decreasing interaction
BDNF/NT-3 growth factors receptor (Rattus norvegicus (Rat)), Q63604 T489A	decreasing interaction

— IntAct's records for PubMed 17341134
